Experimental data taken from paper PMC7033311, “The Eaf3 chromodomain acts as a pH sensor for gene expression by altering its binding affinity for histone methylated-lysine residues” (Bioscience Reports, 2020).
Like-named read-outs stand apart in the source and are kept apart here. Where no end group is shown, it is not given here. [ ]: non-standard residue; d: D form. me2 = dimethylated (di-methylated lysine); Lys(Me3) = C[N+](C)(C)CCCC[C@H](N)C(=O)O; pT = C[C@@H](OP(=O)(O)O)[C@H](N)C(=O)O; Lys(Me2) = CN(C)CCCC[C@H](N)C(=O)O

Columns and labels:
Eaf3 CD Y23A = Eaf3 CD Y23A (Saccharomyces cerevisiae, UniProt Q12432, Y23A); assay type: binding; conditions: pH 6.8
Eaf3 CD Y81A = Eaf3 CD Y81A (Saccharomyces cerevisiae, UniProt Q12432, Y81A); assay type: binding; conditions: pH 6.8
Chain of Eaf3 CD Y81A (Q12432 1-120 Y81A limits assumed): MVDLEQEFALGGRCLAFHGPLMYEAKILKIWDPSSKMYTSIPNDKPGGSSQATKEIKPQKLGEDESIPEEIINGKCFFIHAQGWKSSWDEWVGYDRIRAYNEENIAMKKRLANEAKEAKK

Eaf3 CD W88A = Eaf3 CD W88A (Saccharomyces cerevisiae, UniProt Q12432, W88A); assay type: binding; conditions: pH 6.8
Chain of Eaf3 CD W88A (Q12432 1-120 W88A limits assumed): as the sequence (Q12432 1-120 Y81A limits assumed) above, with A81Y, W88A counted along it

Eaf3 CD W84A = Eaf3 CD W84A (Saccharomyces cerevisiae, UniProt Q12432, W84A); assay type: binding; conditions: pH 6.8
Chain of Eaf3 CD W84A (Q12432 1-120 W84A limits assumed): as the sequence (Q12432 1-120 Y81A limits assumed) above, with A81Y, W84A counted along it

Eaf3 CD (wild-type) = Eaf3 CD (wild-type) (Saccharomyces cerevisiae, UniProt Q12432); assay: biochemical; assay type: binding
[1] = molecular target: Histone H3 peptide trimethylated at Lys36 (H3K36me3) none (post-translational modification: K36me3) (UniProt P61830); assay: NMR pH titration of the free protein (series of 1H,15N-HSQC spectra; His side-chain Hδ2, Hε1, Nδ1, Nε2 and main-chain N shifts); conditions: pH 5.2-10.5; 25°C
[2] = molecular target: Histone H3 peptide trimethylated at Lys36 (H3K36me3) none (post-translational modification: K36me3) (UniProt P61830); assay: NMR titration (1H,15N-HSQC chemical shift perturbation), Bruker AVANCE-600; conditions: 25°C, 20 mM NaCl (given for pH 6.8 and in the pH 8.5 Tris buffer; the wording leaves open whether NaCl was also present at pH 5.2, 6.0 and 7.5), pH 5.2: 10 mM sodium acetate, pH 6.0 and 7.5: 10 mM potassium phosphate, pH 6.8: 10 mM potassium phosphate, pH 8.5: 10 m
[3] = molecular target: His18 (UniProt position 18, …); assay: NMR; conditions: 25 °C, free (no histone peptide), folded
[4] = molecular target: T1, Eaf3 chromodomain (residues 1-120), wild type (Saccharomyces cerevisiae); assay: NMR titration; 0.1 mM 15N-labeled Eaf3 CD titrated with unlabeled histone H3 peptide; 1H,15N-HSQC; 10 mM potassium phosphate pH 6.8, 20 mM NaCl, 5 mM deuterated DTT, 25°C; Kd from the titration curves of Ala25; conditions: both partners purified
T1 construct: Eaf3, Saccharomyces cerevisiae (budding yeast), chromodomain, residues 1-120; 15N-labelled for the NMR titrations; also called Eaf3 CD; WT; source: E. coli BL21(DE3)pLysS, purified (Ni-NTA, thrombin, Ni-NTA, Superdex75)
T1 chain: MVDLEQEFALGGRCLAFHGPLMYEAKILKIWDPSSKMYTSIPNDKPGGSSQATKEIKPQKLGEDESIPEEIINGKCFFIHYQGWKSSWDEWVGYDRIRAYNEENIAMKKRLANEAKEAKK

[5] = molecular target: the molecule itself; assay: SEC; size exclusion chromatograms of wild-type and mutant Eaf3 CD (Superdex75 in the purification); peaks marked D: dimer, M: monomer
[6] = molecular target: T2, Eaf3 chromodomain (Eaf3 CD, residues 1-120), wild type (S. cerevisiae, UniProt Q12432 1-120); assay: NMR titration; 0.1 mM 15N-labelled WT or mutant Eaf3 CD titrated with unlabelled histone H3 peptide up to 1:88; 10 mM potassium phosphate pH 6.8, 20 mM NaCl, 5 mM DTT, 25°C; Kd by nonlinear fit of chemical shift change; conditions: both partners purified
T2 construct: Eaf3 chromodomain (CD), budding yeast (S. cerevisiae), residues 1-120; 15N-labelled for the NMR experiments; expressed from pET15b; also called WT Eaf3 CD; source: E. coli BL21(DE3)pLysS, purified (Ni-NTA, thrombin, Ni-NTA flow-through, Superdex75)
T2 sequence (looked up): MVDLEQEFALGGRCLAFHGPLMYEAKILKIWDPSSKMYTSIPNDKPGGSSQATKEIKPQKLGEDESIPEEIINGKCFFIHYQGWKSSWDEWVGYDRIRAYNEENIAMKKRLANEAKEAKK

[7] = NMR pH titration of histidine residues (pKa); assay type: physicochemical
Experimental: A series of ^1H,^15N-HSQC spectra for 0.1–1.1 mM ^15N-labeled Eaf3 CD were recorded at different pH ranging from 5.2 to 10.5 at 25°C on a Bruker AVANCE-600 spectrometer equipped with a cryogenic probe. The observed chemical shift (δobs) was plotted as a function of pH. pKa values were calculated by a nonlinear least-squares fit of the pH titration curves using the following equation, δobs=[δl+δh×10^(pH-pKa)]/[1+10^(pH-pKa)], where δl and δh represent the chemical shift values at extreme low and high pH, respectively.

C[C@H](N)C(=O)N[C@@H](CCCNC(=N)N)C(=O)N[C@H](C(=O)N[C@@H](CCCC[N+](C)(C)C)C(=O)N[C@@H](CCC(N)=O)C(=O)N[C@H](C(=O)N[C@@H](C)C(=O)N[C@@H](CCCNC(=N)N)C(=O)N[C@@H](CCCCN)C(=O)N[C@@H](CO)C(=O)N[C@H](C(=O)NCC(=O)NCC(=O)N[C@@H](CCCCN)C(=O)N[C@@H](C)C(=O)N1CCC[C@H]1C(=O)N[C@@H](CCCNC(=N)N)C(=O)N[C@@H](Cc1ccc(O)cc1)C(=O)O)[C@@H](C)O)[C@@H](C)O)[C@@H](C)O [H3K4me3]
Dissociation constant (Kd) (Eaf3 CD Y23A): N.B. | Dissociation constant (Kd) (Eaf3 CD Y81A): N.B. | Dissociation constant (Kd) (Eaf3 CD W88A): N.B. | Dissociation constant (Kd) (Eaf3 CD W84A): N.B.

C[C@H](N)C(=O)N[C@@H](CCCNC(=N)N(C)C)C(=O)N[C@H](C(=O)N[C@@H](CCCC[N+](C)(C)C)C(=O)N[C@@H](CCC(N)=O)C(=O)N[C@H](C(=O)N[C@@H](C)C(=O)N[C@@H](CCCNC(=N)N)C(=O)N[C@@H](CCCCN)C(=O)N[C@@H](CO)C(=O)N[C@H](C(=O)NCC(=O)NCC(=O)N[C@@H](CCCCN)C(=O)N[C@@H](C)C(=O)N1CCC[C@H]1C(=O)N[C@@H](CCCNC(=N)N)C(=O)N[C@@H](Cc1ccc(O)cc1)C(=O)O)[C@@H](C)O)[C@@H](C)O)[C@@H](C)O [H3R2ame2K4me3]
Dissociation constant (Kd) (Eaf3 CD Y23A): N.B. | Dissociation constant (Kd) (Eaf3 CD Y81A): N.B. | Dissociation constant (Kd) (Eaf3 CD W88A): N.B. | Dissociation constant (Kd) (Eaf3 CD W84A): N.B.

C[N+](C)(C)CCCC[C@H](N)C(=O)O [Kme3, tri-methyl-lysine]
Kd (Eaf3 CD (wild-type)): 4.44 ± 0.23 mM

CN(C)C(N)=NCCC[C@H](N)C(=O)O [Rame2, asymmetrically di-methylated arginine]
Kd (Eaf3 CD (wild-type); pH 6.8, read-out: Dissociation constant (Kd)): > 10 mM

Eaf3 chromodomain (Eaf3 CD), wild type
pKa, His18 of Eaf3 CD [1]: approximately 6.8 | fold change of binding (relative to pH 6.8) ([2]; pH 6.0-6.8): weakened 2.3-fold on going from pH 6.8 to 6.0 | fold change of binding (relative to pH 6.8) ([2]; pH 6.8-7.5): enhanced 2.2-fold on going from pH 6.8 to 7.5 | fold change of binding ([2]; pH 8.5): enhanced a further 3.6-fold at pH 8.5

Eaf3 chromodomain H18A H18A
fold change of binding (relative to pH 6.8) ([2]; pH 5.2): decreased by 1.9-fold at pH 5.2 | fold change of binding (H18A relative to WT) ([2]; pH 6.8): 2.9-fold stronger binding than WT at pH 6.8 | fold change of binding (relative to pH 6.8) ([2]; pH 8.5): slightly enhanced by a factor of 1.2-fold at pH 8.5

Eaf3 chromodomain H18D H18D
fold change of binding (H18D relative to WT) ([2]; pH 6.8): 11.7-fold increase relative to WT at pH 6.8

B1: Eaf3 chromodomain (Eaf3 CD; essential Sas2-related acetyltransferase 1-associated factor 3) (Saccharomyces cerevisiae) (protein)
chain: MVDLEQEFALGGRCLAFHGPLMYEAKILKIWDPSSKMYTSIPNDKPGGSSQATKEIKPQKLGEDESIPEEIINGKCFFIHYQGWKSSWDEWVGYDRIRAYNEENIAMKKRLANEAKEAKK
pKa ([3]; not stated for the pH titration, the authors state that the pH changes did not disrupt the structure): approximately 6.8

B2: Eaf3 chromodomain (Eaf3 CD; essential Sas2-related acetyltransferase1-associated factor 3) (Saccharomyces cerevisiae) (protein)
chain: MVDLEQEFALGGRCLAFHGPLMYEAKILKIWDPSSKMYTSIPNDKPGGSSQATKEIKPQKLGEDESIPEEIINGKCFFIHYQGWKSSWDEWVGYDRIRAYNEENIAMKKRLANEAKEAKK
pKa ([3]; the authors state that the pH changes caused no disruption of structure): 6.47

B3: Histone H3 peptide trimethylated at Lys36 (H3K36me3) (peptide)
peptide: SAPSTGGVK(me3)KPHRYKPGT
notes: histone H3; source: synthetic peptide (bought: Qiagen and SIGMA Genosys)
Kd [4]: 1.94 ± 0.094 mM

B4: Histone H3 peptide dimethylated at Lys36 (H3K36me2), 18 residues (peptide)
peptide: SAPSTGGVK(me2)KPHRYKPGT
notes: as for B3
Kd [4]: 4.41 ± 0.908 mM

B5: Eaf3 chromodomain (residues 1-120) G19A (domain or fragment, Saccharomyces cerevisiae, UniProt Q12432 1-120, looked up)
chain: MVDLEQEFALGGRCLAFHAPLMYEAKILKIWDPSSKMYTSIPNDKPGGSSQATKEIKPQKLGEDESIPEEIINGKCFFIHYQGWKSSWDEWVGYDRIRAYNEENIAMKKRLANEAKEAKK
notes: Eaf3, Saccharomyces cerevisiae, chromodomain, residues 1-120; source: E. coli BL21(DE3)pLysS, purified (Ni-NTA, thrombin, Ni-NTA, Superdex75)
stoichiometry N [5]: 2

B6: Eaf3 chromodomain (residues 1-120) Y23A (domain or fragment, Saccharomyces cerevisiae, UniProt Q12432 1-120, looked up)
chain: MVDLEQEFALGGRCLAFHGPLMAEAKILKIWDPSSKMYTSIPNDKPGGSSQATKEIKPQKLGEDESIPEEIINGKCFFIHYQGWKSSWDEWVGYDRIRAYNEENIAMKKRLANEAKEAKK
notes: as for B5
stoichiometry N [5]: 2

B7: histone H3 peptide H3T3phoK4me3, titration peptide (printed in Table 1 as H3T3phoK3me3) (peptide)
chain: AR[pT][Lys(Me3)]QTARKSTGGKAPRY
Kd [6]: 6.52 ± 0.48 mM

B8: histone H3 peptide H3K4me2, titration peptide (peptide)
chain: ART[Lys(Me2)]QTARKSTGGKAPRY
Kd [6]: 4.04 ± 0.11 mM

B9: Eaf3 CD: chromodomain (residues 1−120) of budding yeast Eaf3 (protein)
chain: MVDLEQEFALGGRCLAFHGPLMYEAKILKIWDPSSKMYTSIPNDKPGGSSQATKEIKPQKLGEDESIPEEIINGKCFFIHYQGWKSSWDEWVGYDRIRAYNEENIAMKKRLANEAKEAKK
modifications: left off: His6, end not stated, cleaved
notes: chromodomain (residues 1−120) of budding yeast Eaf3
observed pKa value of His18 ([7]; NMR pH titration, 25°C, overall): approximately 6.8 | fraction of Eaf3 CD molecules with protonated His18 ([7]; at pH 5.2): almost all | fraction of Eaf3 CD molecules protonated at His18 ([7]; at physiological pH of 6.8): almost half
